The record followed here is US20260015418A1 (ABL BIO, published 2026).

Values joined by “and” are separate entries in the source; they are usually repeats but may differ in a detail not shown here. Equal entries are not always repeated.

Assay [1] addresses T1, human ROR1 protein (ROR1-His; Sino Biological, Catalog #13968-H08H) (human, UniProt Q01973 30-406).
T1 construct: extracellular domain; Bought protein; also called human recombinant ROR1 protein
Kind of assay: SACE ELISA on human ROR1-His. The protocol:
(§1) The binding affinity of the anti-ROR1 antibody-antigen was evaluated using an ELISA-based solution binding assay. Specifically, 96-well microtiter plates (Nunc-Immuno Plates, NUNC) were coated with ROR1 protein (ROR1-His; sino biological, Catalog #13968-H08H) at a concentration of 1 μg/ml in PBS solution at 4° C. for 16 hours, and non-specific binding sites were blocked with 1% (v/v) BSA (bovine serum albumin) for 2 hours.
(§2) Subsequently, on the 96-well microtiter plates, anti-ROR1 antibodies at concentrations stated in FIGS. 1a to 1c were added to the microtiter plates, and their binding capabilities were analyzed by ELISA as follows. Specifically, after incubating at 37° C. for 2 hours, the plates were washed five times with PBS containing 0.05% (v/v) Tween 20, then the HRP-conjugated Fab polyclonal antibody reagent (Pierce, Catalog #31414) was diluted at a 1:30,000 ratio and added to the washed microtiter plates, then reacted for 1 hour at 37° C., then detected the bound anti-ROR1 antibodies. After reaction, the color was developed using TMB (tetramethylbenzidine, Sigma, T0440). The enzymatic reaction was stopped with 0.5 mol/L sulfuric acid, and the absorbance was read at 450 nm and 650 nm using a microplate reader (Molecular Devices). […]
In general terms: In an ELISA, binding on a coated surface is turned into a signal by an enzyme label.

In assay [2] the target is T1, human ROR1 protein (ROR1-His; Sino …). Kind of assay: SACE ELISA on human ROR1-His; antibody stored 2 weeks at 4°C. The protocol:
as §1, §2

The target is the same in assay [3]. Kind of assay: SACE ELISA on human ROR1-His; antibody stored 2 weeks at 37°C. The protocol:
as §1, §2

For assay [4], the target named is T2, human ROR1 on cells (NCI-N87, CHOK1-hROR1, AGS, CHO-huROR1-huB7-H3) (human, UniProt Q01973 30-937).
T2 construct: whole, on cells; also called cell surface ROR1
Briefly: flow cytometry on CHO-huROR1-huB7-H3 cells, FITC anti-human IgG, MFI over secondary antibody only. The text has this: To evaluate the cell-binding ability of the anti-ROR1/B7-H3 bispecific antibody, cells expressing both ROR1 and B7-H3 were used to compare the cell-binding ability of the bispecific antibody with that of the monospecific antibodies.
As a cell line for the comparison of cell-binding ability, CHO-huROR1-huB7-H3 cell line (obtained by transfecting the ROR1-CHO recombinant cell line (BPS Bioscience) with the human B7-H3 gene (Origene) and selecting for the desired gene-inserted single cells using G418), which stably transfected the human ROR1 and human B7-H3 gene to artificially overexpress both human ROR1 and human B7-H3 proteins were used, and analysis was performed using a flow cytometer (LSRFortessa X-20, BD Biosciences). Specifically, after dissociating and washing the overexpressing cell line with PBS, the cell number was counted, and the cells were seeded at a density of 2×10⁵ cells per well into a V-bottom 96-well plate (96 Well Plate-RV, Bioneer, 910D09). Antibodies diluted 4-fold starting from 100 nM in 1% BSA solution were added at 100 μL per well to the centrifuged cells and incubated at 4° C. for 1 hour. […] After the reaction, the cells were washed twice with the same buffer, resuspended in 100 μL of PBS, and analyzed using a FACS instrument. A total of 10,000 cells were detected per measurement, and the data was analyzed using FlowJo software. […]
On the technique in general: In flow cytometry, cells or beads pass a laser one at a time.

Assay [5] deals with T1, human ROR1 protein (ROR1-His; Sino …). Kind of assay: ELISA, plate coated with ROR1-His (1 ug/ml), bound antibody detected with HRP-conjugated anti-Fab polyclonal antibody, OD at 450 nm; lower graph and table. The protocol:
as §1
Subsequently, on the 96-well microtiter plates, anti-ROR1 antibodies at concentrations stated in FIGS. 1a to 1c were added to the microtiter plates, and their binding capabilities were analyzed by ELISA as follows. Specifically, after incubating at 37° C. for 2 hours, the plates were washed five times with PBS containing 0.05% (v/v) Tween 20, then the HRP-conjugated Fab polyclonal antibody reagent (Pierce, Catalog #31414) was diluted at a 1:30,000 ratio and added to the washed microtiter plates, then reacted for 1 hour at 37° C., then detected the bound anti-ROR1 antibodies. After reaction, the color was developed using TMB (tetramethylbenzidine, Sigma, T0440). The enzymatic reaction was stopped with 0.5 mol/L sulfuric acid, and the absorbance was read at 450 nm and 650 nm using a microplate reader (Molecular Devices).

B1: BA6M11 anti-ROR1 antibody (IgG) (antibody, V domains shown)
VH: EVQLLESGGGLVQPGGSLRLSCAASGFTFSNYDMSWVRQAPGKGLEWVSAIYHSGSSKYYADSVKGRFTISRDNSKNTLYLQMNSLRAEDTAVYYCARGGSGAWDTGFDYWGQGTLVTVSS
VL: QSVLTQPPSASGTPGQRVTISCSGSSSNIGSNDVSWYQQLPGTAPKLLIYYENNRPSGVPDRFSGSKSGTSASLAISGLRSEDEADYYCGAWDDSLSGYVFGGGTKLTVL
notes: IgG form; also called BA6 IgG (M11); double mutant D51E (LC)+N97S (HC)
With B1, the “Ratio (EC50, 4°C sample against 37°C sample)” value in assay [1] came to 129%. Moreover, the EC50 (in general, the concentration giving half of the maximal effect) in assay [2] is 0.166 nM; in assay [3] it was 0.129 nM; in assay [5], 0.144 nM and 0.133 nM. Besides, the EC50 (read off the curve) (commonly the concentration at which the effect is half-maximal) in assay [4] is about 0.7 nM.
